From patent US20060110789

T1: diketide-ACP4(4) (DEBS ACP4 with its natural C-terminal linker, loaded with diketide), Q03132
T1 chain: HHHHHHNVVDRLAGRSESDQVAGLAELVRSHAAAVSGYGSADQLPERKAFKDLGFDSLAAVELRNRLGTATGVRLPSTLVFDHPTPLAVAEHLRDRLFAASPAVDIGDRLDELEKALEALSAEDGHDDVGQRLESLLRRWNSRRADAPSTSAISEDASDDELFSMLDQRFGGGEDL

T2: diketide-ACP2(4) (DEBS ACP2 with the C-terminal linker of module 4, loaded with diketide), Q03131
T2 chain: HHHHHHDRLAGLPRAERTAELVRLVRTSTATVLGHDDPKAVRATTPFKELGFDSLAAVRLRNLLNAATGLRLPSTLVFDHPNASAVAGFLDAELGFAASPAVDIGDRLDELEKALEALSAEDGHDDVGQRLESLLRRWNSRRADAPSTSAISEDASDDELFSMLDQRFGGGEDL

T3: diketide-ACP2(2) (DEBS ACP2 with its natural C-terminal linker, loaded with diketide), Q03131
T3 chain: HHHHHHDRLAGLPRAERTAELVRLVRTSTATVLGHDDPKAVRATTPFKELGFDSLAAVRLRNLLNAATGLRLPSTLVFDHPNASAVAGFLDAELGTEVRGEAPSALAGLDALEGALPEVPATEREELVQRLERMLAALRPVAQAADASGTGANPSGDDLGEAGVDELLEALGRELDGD

B1: M3+TE (module 3 of DEBS with its own N-terminal linker, fused to thioesterase) (protein)
chain: VTDSEKVAEYLRRATLDLRAARQRIRELESIAIVSMACRLPGGVNTPQRLWELLREGGETLSGFPTDRGWDLARLHHPDPDNPGTSYVDKGGFLDDAAGFDAEFFGVSPREAAAMDPQQRLLLETSWELVENAGIDPHSLRGTATGVFLGVAKFGYGEDTAAAEDVEGYSVTGVAPAVASGRISYTMGLEGPSISVDTACSSSLVALHLAVESLRKGESSMAVVGGAAVMATPGVFVDFSRQRALAADGRSKAFGAGADGFGFSEGVTLVLLERLSEARRNGHEVLAVVRGSALNQDGASNGLSAPSGPAQRRVIRQALESCGLEPGDVDAVEAHGTGTALGDPIEANALLDTYGRDRDADRPLWLGSVKSNIGHTQAAAGVTGLLKVVLALRNGELPATLHVEEPTPHVDWSSGGVALLAGNQPWRRGERTRRARVSAFGISGTNAHVIVEEAPEREHRETTAHDGRPVPLVVSARTTAALRAQAAQIAELLERPDADLAGVGLGLATTRARHEHRAAVVASTREEAVRGLREIAAGAATADAVVEGVTEVDGRNVVFLFPGQGSQWAGMGAELLSSSPVFAGKIRACDESMAPMQDWKVSDVLRQAPGAPGLDRVDVVQPVLFAVMVSLAELWRSYGVEPAAVVGHSQGEIAAAHVAGALTLEDAAKLVVGRSRLMRSLSGEGGMAAVALGEAAVRERLRPWQDRLSVAAVNGPRSVVVSGEPGALRAFSEDCAAEGIRVRDIDVDYASHSPQIERVREELLETTGDIAPRPARVTFHSTVESRSMDGTELDARYWYRNLRETVRFADAVTRLAESGYDAFIEVSPHPVVVQAVEEAVEEADGAEDAVVVGSLHRDGGDLSAFLRSMATAHVSGVDIRWDVALPGAAPFALPTYPFQRKRYWLQPAAPAAASDELAYRVSWTPIEKPESGNLDGDWLVVTPLISPEWTEMLCEAINANGGRALRCEVDTSASRTEMAQAVAQAGTGFRGVLSLLSSDESACRPGVPAGAVGLLTLVQALGDAGVDAPVWCLTQGAVRTPADDDLARPAQTTAHGFAQVAGLELPGRWGGVVDLPESVDDAALRLLVAVLRGGGRAEDHLAVRDGRLHGRRVVRASLPQSGSRSWTPHGTVLVTGAASPVGDQLVRWLADRGAERLVLAGACPGDDLLAAVEEAGASAVVCAQDAAALREALGDEPVTALVHAGTLTNFGSISEVAPEEFAETIAAKTALLAVLDEVLGDRAVEREVYCSSVAGIWGGAGMAAYAAGSAYLDALAEHHRARGRSCTSVAWTPWALPGGAVDDGYLRERGLRSLSADRAMRTWERVLAAGPVSVAVADVDWPVLSEGFAATRPTALFAELAGRGGQAEAEPDSGPTGEPAQRLAGLSPDEQQENLLELVANAVAEVLGHESAAEINVRRAFSELGLDSLNAMALRKRLSASTGLRLPASLVFDHPTVTALAQHLRICCAGTAAISGPHEFTRLAGALRGIAPVRAVPQPGYEEGEPLPSSMAAVAAVQADAVIRTQGDKPFVVAGHSAGALMAYALATELLDRGHPPRGVVLIDVYPPGHQDAMNAWLEELTATLFDRETVRMDDTRLTALGAYDRLTGQWRPRETGLPTLLVSAGEPMGPWPDDSWKPTWPFEHDTVAVPGDHFTMVQEHADAIARHIDAWHHHHHH
B2: (5)M3+TE (module 3 of DEBS with the N-terminal linker of module 5, fused to thioesterase) (protein)
chain: MSGDNGMTEEKLRRYLKRTVTELDSVTARLREVEHRAGIAIVSMACRLPGGVNTPQRLWELLREGGETLSGFPTDRGWDLARLHHPDPDNPGTSYVDKGGFLDDAAGFDAEFFGVSPREAAAMDPQQRLLLETSWELVENAGIDPHSLRGTATGVFLGVAKFGYGEDTAAAEDVEGYSVTGVAPAVASGRISYTMGLEGPSISVDTACSSSLVALHLAVESLRKGESSMAVVGGAAVMATPGVFVDFSRQRALAADGRSKAFGAGADGFGFSEGVTLVLLERLSEARRNGHEVLAVVRGSALNQDGASNGLSAPSGPAQRRVIRQALESCGLEPGDVDAVEAHGTGTALGDPIEANALLDTYGRDRDADRPLWLGSVKSNIGHTQAAAGVTGLLKVVLALRNGELPATLHVEEPTPHVDWSSGGVALLAGNQPWRRGERTRRARVSAFGISGTNAHVIVEEAPEREHRETTAHDGRPVPLVVSARTTAALRAQAAQIAELLERPDADLAGVGLGLATTRARHEHRAAVVASTREEAVRGLREIAAGAATADAVVEGVTEVDGRNVVFLFPGQGSQWAGMGAELLSSSPVFAGKIRACDESMAPMQDWKVSDVLRQAPGAPGLDRVDVVQPVLFAVMVSLAELWRSYGVEPAAVVGHSQGEIAAAHVAGALTLEDAAKLVVGRSRLMRSLSGEGGMAAVALGEAAVRERLRPWQDRLSVAAVNGPRSVVVSGEPGALRAFSEDCAAEGIRVRDIDVDYASHSPQIERVREELLETTGDIAPRPARVTFHSTVESRSMDGTELDARYWYRNLRETVRFADAVTRLAESGYDAFIEVSPHPVVVQAVEEAVEEADGAEDAVVVGSLHRDGGDLSAFLRSMATAHVSGVDIRWDVALPGAAPFALPTYPFQRKRYWLQPAAPAAASDELAYRVSWTPIEKPESGNLDGDWLVVTPLISPEWTEMLCEAINANGGRALRCEVDTSASRTEMAQAVAQAGTGFRGVLSLLSSDESACRPGVPAGAVGLLTLVQALGDAGVDAPVWCLTQGAVRTPADDDLARPAQTTAHGFAQVAGLELPGRWGGVVDLPESVDDAALRLLVAVLRGGGRAEDHLAVRDGRLHGRRVVRASLPQSGSRSWTPHGTVLVTGAASPVGDQLVRWLADRGAERLVLAGACPGDDLLAAVEEAGASAVVCAQDAAALREALGDEPVTALVHAGTLTNFGSISEVAPEEFAETIAAKTALLAVLDEVLGDRAVEREVYCSSVAGIWGGAGMAAYAAGSAYLDALAEHHRARGRSCTSVAWTPWALPGGAVDDGYLRERGLRSLSADRAMRTWERVLAAGPVSVAVADVDWPVLSEGFAATRPTALFAELAGRGGQAEAEPDSGPTGEPAQRLAGLSPDEQQENLLELVANAVAEVLGHESAAEINVRRAFSELGLDSLNAMALRKRLSASTGLRLPASLVFDHPTVTALAQHLRICCAGTAAISGPHEFTRLAGALRGIAPVRAVPQPGYEEGEPLPSSMAAVAAVQADAVIRTQGDKPFVVAGHSAGALMAYALATELLDRGHPPRGVVLIDVYPPGHQDAMNAWLEELTATLFDRETVRMDDTRLTALGAYDRLTGQWRPRETGLPTLLVSAGEPMGPWPDDSWKPTWPFEHDTVAVPGDHFTMVQEHADAIARHIDAWHHHHHH

Experiments:
[1] = target: T1, diketide-ACP4(4) (DEBS ACP4 with its …)
[2] = target: T2, diketide-ACP2(4) (DEBS ACP2 with the …)
[3] = target: T3, diketide-ACP2(2) (DEBS ACP2 with its …)

Protein	triketide lactone formation at 20 µM substrate (FIG. 27 D) [1]	kcat/KM, fold decrease against the matched reaction (FIG. 27 B) [2]	triketide lactone formation at 20 µM substrate (FIG. 27 B) [2]	k60 µM (overall rate of product formation at 60 µM substrate) [3] [min-]	kcat/KM [3] [M⁻¹ s⁻¹]	triketide lactone formation at 20 µM substrate (FIG. 27 A) [3]	kcat/KM, fold decrease against the matched reaction (FIG. 27 C) [1]	triketide lactone formation at 20 µM substrate (FIG. 27 C) [1]	KM of transfer and elongation, fold increase against the natural linker pair (diketide-ACP2(2) with (3)M3+TE) [2]	kcat/KM [2]
B1	no product was detected at the same substrate concentrations	fell approximately 3-5 fold and 80-200 fold, respectively	transfer of diketide from the donor ACP to the acceptor module occurred at 20 µM substrate concentration	1.4	6500	transfer of diketide from the donor ACP to the acceptor module occurred at 20 µM substrate concentration	–	–	–	–
B2	–	–	–	–	–	–	fell approximately 3-5 fold and 80-200 fold, respectively	transfer of diketide from the donor ACP to the acceptor module occurred at 20 µM substrate concentration	increases the KM for the ACP2-module 3 reaction by approximately 7-fold	the kcat/KM value decreases to 56 min^-1mM^-1
